Experimental data taken from patent publication US20170182119A1 (Dana-Farber, published 2017).

B2: ferritin purified from horse spleen (mixture of FTH1 and FTL subunits) (other)
chain 1: TTAFPSQVRQNYHQDSEAAINRQINLELHASYVYLSMSFYFDRDDVALKNFAKYFLHQSHEEREHAEKLMKLQNQRGGRIFLQDIKKPDQDDWENGLKAMECALHLEKNVNESLLELHKLATDKNDPHLCDFLETHYLNEQVKAIKELGDHVTNLRRMGAPESGMAEYLFDKHTLGECDES
chain 2: SSQIRQNYSTEVEAAVNRLVNLYLRASYTYLSLGFYFDRDDVALEGVCHFFRELAEEKREGAERLLKMQNQRGGRALFQDLQKPSQDEWGTTLDAMKAAIVLEKSLNQALLDLHALGSAQADPHLCDFLESHFLDEEVKLIKKMGDHLTNIQRLVGSQAGLGEYLFERLTLKHD
notes: Bought from Sigma (A3641 in the MYC assays, F4503 in the GST pull-downs); detected with anti-FTH1 antibody; also called Apoferritin; apo-ferritin purified from equine spleen

Key:
[1] = target: B2; experiment: anti-MYC immunoprecipitation of in vitro translated MYC-NCOA4 with horse spleen ferritin, FTH1 immunoblot
Procedure: (§1) An anti-MYC antibody immunoprecipitation was performed followed by immunoblotting with the indicated antibodies.
(§2) To probe the interaction between ferritin and NCOA4, initial binding assays using MYC-tagged NCOA4 full-length and truncation constructs produced using an in vitro translation (“IVT”) system were conducted. […] Apoferritin (Sigma, A3641-100 mg) was added in a pull-down assay using anti-c-Myc Agarose Affinity Gel antibody produced in rabbit (Sigma, A7470-1 ML). Affinity purification reactions were washed thoroughly with 150 mM NaCl, 20 mM Tris (pH 7.4), and 2 mM dithiothreitol.

MYC-NCOA4 full-length = target: T1, MYC-NCOA4 full-length (human, UniProt Q13772 1-614); experiment: anti-MYC immunoprecipitation of in vitro translated MYC-NCOA4 with horse spleen ferritin, immunoblot
T1 construct: not shown: N-terminal MYC tag (vector pT7CFE1-NMyc)
T1 sequence: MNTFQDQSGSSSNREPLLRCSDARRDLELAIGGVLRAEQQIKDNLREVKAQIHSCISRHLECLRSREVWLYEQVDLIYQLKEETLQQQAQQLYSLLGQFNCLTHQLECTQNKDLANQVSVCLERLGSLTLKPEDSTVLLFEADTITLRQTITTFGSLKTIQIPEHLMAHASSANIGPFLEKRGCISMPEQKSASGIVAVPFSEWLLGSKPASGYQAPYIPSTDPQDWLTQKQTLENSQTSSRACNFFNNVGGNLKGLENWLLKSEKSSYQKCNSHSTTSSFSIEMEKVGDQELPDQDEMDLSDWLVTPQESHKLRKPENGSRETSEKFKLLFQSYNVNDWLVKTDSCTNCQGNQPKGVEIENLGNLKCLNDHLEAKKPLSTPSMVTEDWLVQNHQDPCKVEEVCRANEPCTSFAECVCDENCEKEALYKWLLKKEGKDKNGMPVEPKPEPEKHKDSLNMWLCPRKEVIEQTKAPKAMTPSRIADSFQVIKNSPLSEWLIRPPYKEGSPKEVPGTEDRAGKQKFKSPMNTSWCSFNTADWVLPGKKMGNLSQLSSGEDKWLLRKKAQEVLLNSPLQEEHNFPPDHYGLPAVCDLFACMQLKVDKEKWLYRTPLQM

[2] = target: T2, C-terminal MYC-NCOA4 (aa 235-614) (human, UniProt Q13772 235-614); experiment: as above
T2 construct: In vitro translated; also called C-terminal NCOA4; NCOA4 C-terminal fragment; not shown: N-terminal MYC tag (vector pT7CFE1-NMyc)
T2 sequence: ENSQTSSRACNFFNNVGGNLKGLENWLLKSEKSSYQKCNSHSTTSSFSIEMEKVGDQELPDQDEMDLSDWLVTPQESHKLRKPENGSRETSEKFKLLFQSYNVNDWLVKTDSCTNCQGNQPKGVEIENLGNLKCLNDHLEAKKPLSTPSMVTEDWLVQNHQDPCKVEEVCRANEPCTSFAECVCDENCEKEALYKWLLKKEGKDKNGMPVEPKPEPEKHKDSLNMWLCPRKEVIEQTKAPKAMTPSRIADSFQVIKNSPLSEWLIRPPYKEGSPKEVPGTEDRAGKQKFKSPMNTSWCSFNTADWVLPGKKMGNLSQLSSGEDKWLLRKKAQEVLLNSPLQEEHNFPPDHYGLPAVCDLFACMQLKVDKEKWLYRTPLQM

[3] = target: B2; experiment: anti-MYC immunoprecipitation of in vitro translated MYC-NCOA4B with horse spleen ferritin, FTH1 immunoblot
Procedure: as §1, §2

B1: N-terminal MYC-NCOA4 (aa 1-245) (other)
chain: MNTFQDQSGSSSNREPLLRCSDARRDLELAIGGVLRAEQQIKDNLREVKAQIHSCISRHLECLRSREVWLYEQVDLIYQLKEETLQQQAQQLYSLLGQFNCLTHQLECTQNKDLANQVSVCLERLGSLTLKPEDSTVLLFEADTITLRQTITTFGSLKTIQIPEHLMAHASSANIGPFLEKRGCISMPEQKSASGIVAVPFSEWLLGSKPASGYQAPYIPSTDPQDWLTQKQTLENSQTSSRACN
notes: In vitro translated; also called N-terminal NCOA4; NCOA4 N-terminal fragment; not shown: N-terminal MYC tag (vector pT7CFE1-NMyc)
- binding result [1]: no binding

Binder: B2
- binding result (MYC-NCOA4 full-length): binds
- binding result [2]: binds

B3: MYC-tagged NCOA4B (transcript variant, amino acids 1-238 and 555-614 of full-length NCOA4) (other)
chain: MNTFQDQSGSSSNREPLLRCSDARRDLELAIGGVLRAEQQIKDNLREVKAQIHSCISRHLECLRSREVWLYEQVDLIYQLKEETLQQQAQQLYSLLGQFNCLTHQLECTQNKDLANQVSVCLERLGSLTLKPEDSTVLLFEADTITLRQTITTFGSLKTIQIPEHLMAHASSANIGPFLEKRGCISMPEQKSASGIVAVPFSEWLLGSKPASGYQAPYIPSTDPQDWLTQKQTLENSQGEDKWLLRKKAQEVLLNSPLQEEHNFPPDHYGLPAVCDLFACMQLKVDKEKWLYRTPLQM
notes: in vitro translated; also called NCOAB; not shown: N-terminal MYC tag (vector pT7CFE1-NMyc)
- binding result [3]: no binding
